Test [1] deals with T1, DPP-IV (Homo sapiens, UniProt P27487).
T1 construct: purchased Cayman Chemical 700210
Conditions: read-out: IC50, DPP-IV inhibition, cited from earlier work.

Test [2] has as its target T1, DPP-IV. The test is described as follows: DPP-IV inhibitory activity in vitro (Cayman DPP (IV) inhibitor screening assay kit). Particulars: substrate Gly-Pro-AMC, 37 °C, 30 min, fluorescence 355/460 nm; dose–response range from 0.52 to 3.65 μM; drc package in R; read-out: IC50, DPP-IV inhibition. It counts as biochemical. Here is the method: Based on the results of the virtual screening, the optimal oyster peptide (key peptide sequences with potent DPP-IV inhibition) was selected and synthesized by Wuxi Maimertop Biotechnology Co., Ltd. (Wuxi, China). Then, the synthesized peptide was subjected to the DPP-IV inhibition activity verification. The DPP-IV inhibitory activity was determined following the instructions of commercial kits: a DPP (IV) inhibitor screening assay kit (700210 Cayman chemicals, USA). Briefly, 30 µL of assay buffer, 10 µL of DPP-IV enzyme, and 10 µL of peptide solution were added to a 96-well plate. Then, 50 µL of substrate (Gly-Pro-AMC, Sigma-Aldrich, Saint Louis, MO, USA) was added to start the reaction. After incubation at 37 °C for 30 min, the absorbance of the reaction mixture was detected under excitation and emission wavelengths of 355 nm and 460 nm, respectively. The DPP-IV inhibitory activity was calculated using the following formula:(1) DPP-IV Inhibition (%)=A− B/A×100% where A was the average fluorescence of 100% initial activity (blank) and B was the fluorescence of the sample.
The 50% inhibitory concentration (IC50) of DPP-IV enzyme activity was calculated using the drc package (https://cran.r-project.org/web/packages/drc/ accessed on 20 July 2024) in R 4.1.2.

The mark [3] stands for this setting: food-derived peptides from silver carp proteins.
Setting [4] is: food-derived peptides from Sorghum bicolor.
Where [5] appears, read: food-derived peptides from sheep.

Where two headings read alike, the source gives them in different places. No end group written: not given here.

T1 sequence (P27487 whole entry): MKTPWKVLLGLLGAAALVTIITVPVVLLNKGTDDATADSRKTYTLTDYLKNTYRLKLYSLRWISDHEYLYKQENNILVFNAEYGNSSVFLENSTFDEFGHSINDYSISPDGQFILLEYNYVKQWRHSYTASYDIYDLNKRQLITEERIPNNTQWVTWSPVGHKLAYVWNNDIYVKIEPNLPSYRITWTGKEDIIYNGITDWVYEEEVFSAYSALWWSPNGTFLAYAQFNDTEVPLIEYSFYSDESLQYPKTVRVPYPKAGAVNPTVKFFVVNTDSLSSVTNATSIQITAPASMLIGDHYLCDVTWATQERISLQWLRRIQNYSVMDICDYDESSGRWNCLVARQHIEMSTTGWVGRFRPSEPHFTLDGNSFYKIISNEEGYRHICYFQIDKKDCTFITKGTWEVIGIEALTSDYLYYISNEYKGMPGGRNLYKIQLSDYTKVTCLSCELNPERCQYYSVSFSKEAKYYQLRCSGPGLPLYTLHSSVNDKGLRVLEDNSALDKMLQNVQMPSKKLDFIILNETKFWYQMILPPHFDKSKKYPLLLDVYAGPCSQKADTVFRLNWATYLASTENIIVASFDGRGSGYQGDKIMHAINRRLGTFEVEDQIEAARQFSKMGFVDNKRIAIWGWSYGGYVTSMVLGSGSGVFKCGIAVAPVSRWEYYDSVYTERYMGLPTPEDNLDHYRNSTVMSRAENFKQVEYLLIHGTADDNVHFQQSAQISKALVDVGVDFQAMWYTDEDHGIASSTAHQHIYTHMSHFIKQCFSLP

With “APGPAG [food-derived peptide from silver carp proteins]”, the IC50 (usually the concentration at which inhibition is half-maximal) with DPP-IV [1] (setting [3]) is 229 µM.

As for “LPIIDI [food-derived peptide from silver carp proteins]”, the IC50 with DPP-IV [1] (setting [3]) was 105 µM.

LRGFGNPPT: on DPP-IV [2], the IC50 turned out to be 1.56 µM.

As for “LSICGEESFGTGSDHIR [food-derived peptide from Sorghum bicolor]”, in the test with DPP-IV [1] (setting [4]), the IC50 was 73.5 µM.

Turning to “MQEHFTCCR [food-derived peptide from sheep]”, in the test with DPP-IV [1] (setting [5]), the IC50 was 215 µM.

In the case of “QLRDIVDK [food-derived peptide from Sorghum bicolor]”, the IC50 with DPP-IV [1] (setting [4]) was 8.55 µM.

As to “RLYLHENK [food-derived peptide from sheep]”, the IC50 in the test with DPP-IV [1] (setting [5]) was 166 µM.

On to “SLGESLLQEDVEAHK [food-derived peptide from Sorghum bicolor]”, for which the IC50 in the test with DPP-IV [1] (setting [4]) was 82.5 µM.
